Reference: PMC3102069, “Charge Isomers of Myelin Basic Protein: Structure and Interactions with Membranes, Nucleotide Analogues, and Calmodulin” (PLoS ONE, 2011)

What was measured:
[1] = target: recombinant murine 18.5-kDa myelin basic protein, C1 charge isomer analogue (rmC1) (mouse) (UniProt P04370); assay: SEC; Superdex 200 HR 10/30, room temperature; 20 mM HEPES pH 7.5, 100 mM NaCl, 10 mM CaCl2; rmMBP 25 µM with CaM 12.5-125 µM (rmMBP:CaM 2:1, 1:1, 1:2, 1:3, 1:5)
[2] = target: recombinant murine 18.5-kDa myelin basic protein, pseudodeiminated C8 charge isomer analogue (rmC8) (mouse); assay: as above
[3] = target: recombinant murine 18.5-kDa myelin basic protein, C1 charge isomer analogue (rmC1) (mouse) (UniProt P04370); assay: ITC; CaM (100 µM) in the syringe titrated into rmMBP (5 µM) in the cell; 20 mM HEPES pH 7.5, 100 mM NaCl, 10 mM CaCl2; one-site model with floating, apparent stoichiometry; +15°C
[4] = target: recombinant murine 18.5-kDa myelin basic protein, pseudodeiminated C8 charge isomer analogue (rmC8) (mouse); assay: as above
[5] = target: recombinant murine 18.5-kDa myelin basic protein, C1 charge isomer analogue (rmC1) (mouse) (UniProt P04370); assay: ITC; CaM (100 µM) in the syringe titrated into rmMBP (5 µM) in the cell; 20 mM HEPES pH 7.5, 100 mM NaCl, 10 mM CaCl2; one-site model with floating, apparent stoichiometry; +20°C
[6] = target: recombinant murine 18.5-kDa myelin basic protein, pseudodeiminated C8 charge isomer analogue (rmC8) (mouse); assay: as above
[7] = target: recombinant murine 18.5-kDa myelin basic protein, C1 charge isomer analogue (rmC1) (mouse) (UniProt P04370); assay: ITC; CaM (100 µM) in the syringe titrated into rmMBP (5 µM) in the cell; 20 mM HEPES pH 7.5, 100 mM NaCl, 10 mM CaCl2; one-site model with floating, apparent stoichiometry; +25°C
[8] = target: recombinant murine 18.5-kDa myelin basic protein, pseudodeiminated C8 charge isomer analogue (rmC8) (mouse); assay: as above
[9] = target: recombinant murine 18.5-kDa myelin basic protein, C1 charge isomer analogue (rmC1) (mouse) (UniProt P04370); assay: ITC; CaM (100 µM) in the syringe titrated into rmMBP (5 µM) in the cell; 20 mM HEPES pH 7.5, 100 mM NaCl, 10 mM CaCl2; one-site model with floating, apparent stoichiometry; +30°C
[10] = target: recombinant murine 18.5-kDa myelin basic protein, pseudodeiminated C8 charge isomer analogue (rmC8) (mouse); assay: as above
[11] = target: recombinant murine 18.5-kDa myelin basic protein, C1 charge isomer analogue (rmC1) (mouse) (UniProt P04370); assay: ITC; CaM (100 µM) in the syringe titrated into rmMBP (5 µM) in the cell; 20 mM HEPES pH 7.5, 100 mM NaCl, 10 mM CaCl2; one-site model with floating, apparent stoichiometry; 35°C (temperature from Table 3)
[12] = target: recombinant murine 18.5-kDa myelin basic protein, pseudodeiminated C8 charge isomer analogue (rmC8) (mouse); assay: as above
calmodulin = calmodulin (UniProt P0DP23); conditions: cited from earlier work

Chain of recombinant murine 18.5-kDa myelin basic protein, C1 charge isomer analogue (rmC1) (mouse) (P04370 other isoform, or with tags, fused parts or gaps): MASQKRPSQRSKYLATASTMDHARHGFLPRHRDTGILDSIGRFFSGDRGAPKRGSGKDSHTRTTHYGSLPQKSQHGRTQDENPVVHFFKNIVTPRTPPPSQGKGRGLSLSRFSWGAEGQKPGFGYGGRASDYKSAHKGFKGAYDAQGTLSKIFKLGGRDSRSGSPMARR

Row | Substance | stoichiometry N [1] | stoichiometry N [2] | stoichiometry N [3] | Kd [4] [nM] | stoichiometry N [4] | stoichiometry N [5] | stoichiometry N [6] | stoichiometry N [7] | stoichiometry N [8] | stoichiometry N [9] | stoichiometry N [10] | stoichiometry N [11] | Kd [12] [nM] | stoichiometry N [12] | Kd (calmodulin) [nM]
1 | calmodulin (CaM), recombinant (from UniProt P0DP23 1-149) (natural protein) | 2 | 2 | 1.5 | 1200 | 1.5 | 1.5 | 1.3 | 1.9 | 1.2 | 1.4 | 1 | 0.9 | 1900 | 0.8 | 
2 | myelin basic protein (brain) (from UniProt P02687) |  |  |  |  |  |  |  |  |  |  |  |  |  |  | 10
